Experimental data from article PMC3641235.

System: HDM2 (C-terminal HA);p53 (human;human?)
Assay: pull-down (anti-HA beads, real-time PCR)
Settings: 100 uM Nutlin-3A (disrupts p53-HDM2); Anti-HA protein G beads; blocked in PBST-3% BSA, IVT HDM2 30 min, Nutlin 1 h, IVT p53 1 h; washes PBST-0.1% BSA then PBS; temperature and pH not given

Question: Which binding signal (fold reduction of DNA pulled down) does the source give for “2ConA-HDM2 DNA template (two CONA p53 response elements)” here?
Answer: 383
